# Experimental data from patent publication EP4786494A1 (Nanjing Leads Biolabs Co., Ltd., dated 2026).
# T1: human FGFR2-his protein (huFGFR2-his) (human)
# T1 construct: Extracellular region of human FGFR2 (NP_001138385.1) with a 6xHis tag; also called human FGFR2 extracellular protein
# T1 chain: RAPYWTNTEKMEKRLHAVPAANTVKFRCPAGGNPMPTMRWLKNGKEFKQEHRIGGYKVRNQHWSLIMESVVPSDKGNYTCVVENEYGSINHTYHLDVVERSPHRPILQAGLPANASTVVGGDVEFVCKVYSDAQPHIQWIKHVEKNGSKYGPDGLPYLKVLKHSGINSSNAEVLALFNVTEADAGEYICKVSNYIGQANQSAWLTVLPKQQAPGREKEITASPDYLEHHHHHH
# T2: cynomolgus FGFR2-his protein (cynoFGFR2-his) (cynomolgus)
# T2 construct: Extracellular region of cynomolgus FGFR2b (XP_028682763.1) with a 6xHis tag; also called cynomolgus FGFR2 extracellular protein
# T2 chain: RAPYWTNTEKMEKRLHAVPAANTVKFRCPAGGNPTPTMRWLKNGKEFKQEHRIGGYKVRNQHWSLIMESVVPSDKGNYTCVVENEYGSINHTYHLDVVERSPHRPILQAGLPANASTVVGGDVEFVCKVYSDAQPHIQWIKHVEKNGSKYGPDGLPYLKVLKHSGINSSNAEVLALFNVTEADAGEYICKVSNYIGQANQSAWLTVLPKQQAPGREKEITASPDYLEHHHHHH
# Assays:
# [1] = biological target: T1, human FGFR2-his protein (huFGFR2-his); experiment: BLI (ForteBio Octet RED96e), antibody on AHC sensor, FGFR2-his in solution, 1:1 model
# [2] = biological target: T2, cynomolgus FGFR2-his protein …; experiment: BLI (ForteBio Octet RED96e), antibody on AHC sensor, cynomolgus FGFR2-his in solution, 1:1 model
binder,measurement,setting,value
"humanized monoclonal antibody huG11B8-5 (antibody, human IgG1, kappa, V domains shown, huG11B8H-3 + huG11B8L-1; human IgG1 / kappa) VH: EVQLVQSGAEVKKPGATVKISCKASGYTFTDYNMDWVQQAPGKGLEWMGDINPKNGETFYAEKFQGRVTLTVDRSTNTAYMELSSLRSEDTAVYFCAKRDLNWYFDYWGQGTTVTVSS VL: DIQMTQSPSSLSASVGDRVTITCQASDHINNWLAWYQQKPGKAPKLLISGATSLETGVPSRFSGSGSGKDYTFTISSLQPEDIATYYCQQYWSTPWTFGGGTKVEIKR",Kd,[1],2.62 nM
same,koff,[1],0.000431 s⁻¹
same,kon,[1],164000 M⁻¹ s⁻¹
same,Kd,[2],1.62 nM
same,koff,[2],0.000866 s⁻¹
same,kon,[2],536000 M⁻¹ s⁻¹
